The values that follow come from PMC3401526.

Assay [1] concerns the target Cav3.2 T-type calcium channel α 1H subunit (UniProt O95180).
The target is the same in assay [2]. This is another data set of the same source.

UniProt O95180, sequence (O95180 whole entry): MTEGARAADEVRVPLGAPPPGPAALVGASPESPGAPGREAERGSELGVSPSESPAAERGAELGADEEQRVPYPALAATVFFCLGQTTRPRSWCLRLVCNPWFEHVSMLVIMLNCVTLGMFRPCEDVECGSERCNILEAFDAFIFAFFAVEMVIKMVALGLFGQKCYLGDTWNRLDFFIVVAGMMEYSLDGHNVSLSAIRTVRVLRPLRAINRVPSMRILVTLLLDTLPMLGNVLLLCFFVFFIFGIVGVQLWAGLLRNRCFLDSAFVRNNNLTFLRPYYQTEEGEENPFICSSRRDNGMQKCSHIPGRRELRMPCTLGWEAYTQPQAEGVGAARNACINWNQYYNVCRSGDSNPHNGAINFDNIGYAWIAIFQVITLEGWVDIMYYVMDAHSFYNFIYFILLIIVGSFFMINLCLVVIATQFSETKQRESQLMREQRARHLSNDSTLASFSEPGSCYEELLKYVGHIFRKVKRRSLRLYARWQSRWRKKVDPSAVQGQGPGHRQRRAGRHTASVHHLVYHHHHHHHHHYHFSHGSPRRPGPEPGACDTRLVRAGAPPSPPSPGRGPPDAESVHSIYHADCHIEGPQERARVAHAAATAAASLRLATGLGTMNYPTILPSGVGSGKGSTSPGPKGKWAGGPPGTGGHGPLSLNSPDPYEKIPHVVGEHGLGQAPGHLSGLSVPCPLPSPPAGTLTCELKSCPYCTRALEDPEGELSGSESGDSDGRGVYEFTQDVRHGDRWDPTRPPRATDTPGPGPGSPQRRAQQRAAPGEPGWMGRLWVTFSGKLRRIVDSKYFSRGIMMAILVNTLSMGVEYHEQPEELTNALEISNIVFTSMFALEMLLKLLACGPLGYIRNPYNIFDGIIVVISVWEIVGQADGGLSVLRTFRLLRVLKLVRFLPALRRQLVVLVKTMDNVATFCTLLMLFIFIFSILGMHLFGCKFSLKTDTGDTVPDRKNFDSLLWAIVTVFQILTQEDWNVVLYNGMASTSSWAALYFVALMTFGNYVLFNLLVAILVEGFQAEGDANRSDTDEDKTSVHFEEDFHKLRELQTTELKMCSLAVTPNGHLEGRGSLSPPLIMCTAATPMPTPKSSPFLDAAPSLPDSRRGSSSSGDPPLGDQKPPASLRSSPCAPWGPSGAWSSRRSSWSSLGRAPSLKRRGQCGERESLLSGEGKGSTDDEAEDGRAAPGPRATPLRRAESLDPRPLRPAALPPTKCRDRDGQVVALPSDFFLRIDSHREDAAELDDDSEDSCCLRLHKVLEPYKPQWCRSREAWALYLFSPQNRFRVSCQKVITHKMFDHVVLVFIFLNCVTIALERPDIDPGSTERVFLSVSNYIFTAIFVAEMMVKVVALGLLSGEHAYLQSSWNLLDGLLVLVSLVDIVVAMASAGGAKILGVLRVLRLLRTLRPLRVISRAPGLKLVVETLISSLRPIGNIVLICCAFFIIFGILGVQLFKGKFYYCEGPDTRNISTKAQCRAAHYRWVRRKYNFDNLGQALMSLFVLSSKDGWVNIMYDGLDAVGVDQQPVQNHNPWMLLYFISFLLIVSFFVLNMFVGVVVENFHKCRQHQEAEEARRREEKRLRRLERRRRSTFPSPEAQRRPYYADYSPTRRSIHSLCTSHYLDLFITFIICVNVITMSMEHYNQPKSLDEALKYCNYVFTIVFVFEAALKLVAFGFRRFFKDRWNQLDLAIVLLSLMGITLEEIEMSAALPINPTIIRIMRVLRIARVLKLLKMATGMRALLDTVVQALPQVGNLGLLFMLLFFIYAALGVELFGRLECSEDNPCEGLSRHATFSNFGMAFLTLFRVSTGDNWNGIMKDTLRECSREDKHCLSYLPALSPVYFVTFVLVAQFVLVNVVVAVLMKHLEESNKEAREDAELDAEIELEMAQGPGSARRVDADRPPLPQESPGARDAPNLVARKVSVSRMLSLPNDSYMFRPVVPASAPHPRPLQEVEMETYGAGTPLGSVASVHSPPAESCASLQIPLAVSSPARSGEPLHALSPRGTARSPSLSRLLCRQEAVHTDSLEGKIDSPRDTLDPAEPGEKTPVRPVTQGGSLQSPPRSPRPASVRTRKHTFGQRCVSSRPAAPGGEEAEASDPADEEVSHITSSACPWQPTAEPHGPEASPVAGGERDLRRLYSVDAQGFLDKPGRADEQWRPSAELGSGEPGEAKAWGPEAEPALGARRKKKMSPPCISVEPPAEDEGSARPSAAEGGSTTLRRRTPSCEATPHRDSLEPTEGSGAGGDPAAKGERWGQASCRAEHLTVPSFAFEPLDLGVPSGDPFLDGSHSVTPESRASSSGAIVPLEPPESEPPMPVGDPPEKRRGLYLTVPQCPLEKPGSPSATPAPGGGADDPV

Turning to “ΔKelch, truncated KLHL1 mutant lacking the Kelch domains (domain or fragment)”, the percentage of increase in calcium influx through Cav3.2 with respect to control, square action potential (SQAP), first stimulus in assay [1] stood at 25 % increase. In assay [2], the percentage of increase in calcium influx through Cav3.2 with respect to control, SQAP with shorter depolarization (0.5 ms at +50 mV); not a rescue of the ΔKelch effect amounted to 38 % increase and the percentage of increase in calcium influx through Cav3.2 with respect to control, SQAP with shorter hyperpolarization (6 ms at -90 mV); not a rescue of the ΔKelch effect amounted to 31 % increase.
